Measured values from paper PMC10226595 (The Plant Cell, 2023).

Target: the molecule itself
Assay: single-molecule pull-down

Protein | stoichiometry N
PHB-Delta, YFP-tagged (PHB with the START domain replaced by the 21-nt miR166 recognition site) (natural protein) MMMVHSMSRDMMNRESPDKGLDSGKYVRYTPEQVEALERVYTECPKPSSLRRQQLIRECPILSNIEPKQIKVWFQNRRCREKQRKEAARLQTVNRKLNAMNKLLMEENDRLQKQVSNLVYENGHMKHQLHTASGTTTDNSCESVVVSGQQHQQQNPNPQHQQRDAGMKPGPDVRQIAQETSGEVQYGGGRQPAVLRTFSQRLCRGFNDAVNGFVDDGWSPMGSDGAEDVTVMINLSPGKFGGSQYGNSFLPSFGSGVLCAKASMLLQNVPPAVLVRFLREHRSEWADYGVDAYAAASLRASPFAVPCARAGGFPSNQVILPLAQTVEHEESLEVVRLEGHAYSPEDMGLARDMYLLQLCSGVDENVVGGCAQLVFAPIDESFADDAPLLPSGFRIIPLEQKSTPNGASANRTLDLASALEGSTRQAGEADPNGCNFRSVLTIAFQFTFDNHSRDSVASMARQYVRSIVGSIQRVALAIAPRPGSNISPISVPTSPEALTLVRWISRSYSLHTGADLFGSDSQTSGDTLLHQLWNHSDAILCCSLKTNASPVFTFANQTGLDMLETTLVALQDIMLDKTLDEPGRKALCSEFPKIMQQGYAHLPAGVCASSMGRMVSYEQATVWKVLEDDESNHCLAFMFVNWSFV | 2
PHB-SDmut, YFP-tagged (PHB with mutated START domain) (natural protein) MMMVHSMSRDMMNRESPDKGLDSGKYVRYTPEQVEALERVYTECPKPSSLRRQQLIRECPILSNIEPKQIKVWFQNRRCREKQRKEAARLQTVNRKLNAMNKLLMEENDRLQKQVSNLVYENGHMKHQLHTASGTTTDNSCESVVVSGQQHQQQNPNPQHQQRDANNPAGLLSIAEEALAEFLSKATGTAVDWVQMIGMKPGPDSIGIVAISRNCSGIAARACGLVSLEPMKVAEILKDRPSWLRDCRSVDTLSVIPAGNGGTIELIYTQMYAPTTLAAAGAVVGAGYSTCLEDGSYVVCERSLTSATGGPTGPPSSNFVVAAGVPSGFLIRPCDGGGSILHIVDHVDLDAWSVPEVMRPLYESSKILAQKMTVAALRHVRQIAQETSGEVQYGGGRQPAVLRTFSQRLCRGFNDAVNGFVDDGWSPMGSDGAEDVTVMINLSPGKFGGSQYGNSFLPSFGSGVLCAKASMLLQNVPPAVLVRFLREHRSEWADYGVDAYAAASLRASPFAVPCARAGGFPSNQVILPLAQTVEHEESLEVVRLEGHAYSPEDMGLARDMYLLQLCSGVDENVVGGCAQLVFAPIDESFADDAPLLPSGFRIIPLEQKSTPNGASANRTLDLASALEGSTRQAGEADPNGCNFRSVLTIAFQFTFDNHSRDSVASMARQYVRSIVGSIQRVALAIAPRPGSNISPISVPTSPEALTLVRWISRSYSLHTGADLFGSDSQTSGDTLLHQLWNHSDAILCCSLKTNASPVFTFANQTGLDMLETTLVALQDIMLDKTLDEPGRKALCSEFPKIMQQGYAHLPAGVCASSMGRMVSYEQATVWKVLEDDESNHCLAFMFVNWSFV | 2
